In patent US20230348858, “COMPOSITIONS AND METHODS FOR PROMOTING PROLIFERATION IN CARDIOMYOCYTES” (THE TRUSTEES OF INDIANA UNIVERSITY, published 2023) one finds Kd data, which are given here for 1 molecule.

The target in the data set is Brg1 helicase domain D1D2 (Mus musculus, UniProt Q3TKT4 SEQ:1-431). The data set is described as follows: EMSA; 10 mM HEPES-KOH pH 7.3, 10 mM NaCl, 1 mM MgCl2, 1 mM DTT, tRNA carrier, room temp. As to conditions: tags: MBP fusion; label: 5'-biotin. As to the method:
Biotin-labelled RNA control probe: [0158] Biotin—5′[…]-3′ (SEQ ID NO 25); and Biotin-labelled RNA probe with m⁶A: [0159] Biotin—5′[…](m⁶A)[…]-3′ (SEQ ID NO 26); were synthesized by Gene Link (Orlando, Fla.). EMSA was performed by using the LightShift™ Chemiluminescent RNA EMSA Kit (Cat. 20158, Thermo Scientific). The labelled probe was incubated with appropriate amounts of recombinant proteins in 10 μl in the 1× binding buffer (10 mM HEPES-KOH, pH 7.3, 10 mM NaCl, 1 mM MgCl2, 1 mM DTT) with 5 μg tRNA carrier at room temperature for 30 min. The reactions were then loaded onto 1% 0.5× TBE agarose gel and transferred to Bright Star Plus positive charged membrane. The biotin-labelled probes were detected and quantified subsequently using Odyssey Infrared Imaging System. The shifted signals were quantified and plotted against amount of the MBP-D1D2 protein ((SEQ ID NO 27) coupled to (SEQ ID NO 2)) with GraphPad Prism (GraphPad). The software facilitates the fitting of nonlinear regression model and calculation of Kd values based on the fitting curve. The errors and r² values were also generated from the fitting curve.

Brg1 helicase domain D1D2, sequence (Q3TKT4 774-1204): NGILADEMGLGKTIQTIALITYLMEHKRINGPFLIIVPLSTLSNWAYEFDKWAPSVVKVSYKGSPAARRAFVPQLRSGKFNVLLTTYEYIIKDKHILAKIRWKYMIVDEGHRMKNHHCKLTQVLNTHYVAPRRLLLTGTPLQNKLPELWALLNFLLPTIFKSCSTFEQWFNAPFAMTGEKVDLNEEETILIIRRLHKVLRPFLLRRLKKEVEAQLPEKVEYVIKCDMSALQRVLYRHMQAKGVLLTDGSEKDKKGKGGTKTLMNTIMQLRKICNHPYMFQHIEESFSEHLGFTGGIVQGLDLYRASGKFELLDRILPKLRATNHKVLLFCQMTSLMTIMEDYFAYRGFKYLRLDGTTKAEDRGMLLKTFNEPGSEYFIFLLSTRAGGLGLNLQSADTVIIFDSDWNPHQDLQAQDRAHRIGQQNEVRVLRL

The molecule UCGUCAUGGCUGAACUGCGGUUGUACACGCUGGUGCAGAGAGAUCGCAU (ssRNA, m6A at A25 (M2 adenosine)) [Bmp10 RNA probe with m6A (49 nt)] yielded a Kd of 176 nM.
